Test results: patent publication US20140030278A1 (QUIAPEG PHARMACEUTICALS, published 2014)
One block for each binder: values may come before it.

How the values were obtained:
[1] = biological target: T1, Recombinant human TNF-alpha (human, UniProt P01375 77-233); experiment: pre-incubation with 2.9 ng/ml rhTNF-alpha, ELISA of unbound rhTNF-alpha
T1 construct: Bought reagent; also called rhTNF-alpha; TNF-α
Method: (§1) A fixed concentration of 2.9 ng/ml rhTNF-alpha was used in all incubations. PEGylation was conducted in 5 time molar excess (5 eq) or 10 time molar excess (10 eq) of PEG20 compared etanercept. IC₅₀ is expressed as gram etanercept per ml.
(§2) Recombinant human TNF-alpha (rhTNF-alpha; AbCam PLC, Cambridge, UK; at a fixed concentration of 2.9 ng/ml) was mixed with different concentrations (29000 ng/ml—56.6 pg/ml) of non-PEGylated etanercept, PEG20-etanercept (5 eq) or PEG20-etanercept (10 eq). The pre-incubation mixtures were incubated in a refrigerator at 4-8° C. overnight. The amount of unbound rhTNF-alpha was analysed with a sensitive enzyme-linked immunosorbent assay (ELISA). In brief, 96-well plates (MaxiSorb, Nunc, Roskilde, Denmark) were used for the ELISA. Plates were coated with two anti-TNF-alpha monoclonal antibodies (TNF3/4, Mabtech AB, Nacka Strand, Sweden) diluted in PBS, pH 7.4, to a final concentration of 2 μg/ml. The 96-well plates were incubated in a refrigerator at 4-8° C. overnight. […] The optical density of the resultant yellow color was measured in a spectrophotometer at 450 nm.

[2] = biological target: T1, Recombinant human TNF-alpha; experiment: pre-incubation with 2.9 ng/ml rhTNF-alpha, ELISA of unbound rhTNF-alpha, 4-parameter fit
Method: as §1, §2

T1 sequence (P01375 77-233 limits assumed): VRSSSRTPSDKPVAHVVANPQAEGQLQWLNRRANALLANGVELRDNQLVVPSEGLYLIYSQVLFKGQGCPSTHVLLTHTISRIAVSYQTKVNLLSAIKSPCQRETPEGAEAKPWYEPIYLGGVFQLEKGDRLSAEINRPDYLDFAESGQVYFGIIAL

binding result [1]: binds
B1: etanercept (ENBREL®), non-PEGylated (Fc fusion)
chain: LPAQVAFTPYAPEPGSTCRLREYYDQTAQMCCSKCSPGQHAKVFCTKTSDTVCDSCEDSTYTQLWNWVPECLSCGSRCSSDQVETQACTREQNRICTCRPGWYCALSKQEGCRLCAPLRKCRPGFGVARPGTETSDVVCKPCAPGTFSNTTSSTDICRPHQICNVVAIPGNASMDAVCTSTSPTRSMAPGAVHLPQPVSTRSQHTQPTPEPSTAPSTSFLLPMGPSPPAEGSTGDEPKSCDKTHTCPPCPAPELLGGPSVFLFPPKPKDTLMISRTPEVTCVVVDVSHEDPQVKFNWYVDGVQVHNAKTKPREQQYNSTYRVVSVLTVLHQNWLDGKEYKCKVSNKALPAPIEKTISKAKGQPREPQVYTLPPSREEMTKNQVSLTCLVKGFYPSDIAVEWESNGQPENNYKTTPPVLDSDGSFFLYSKLTVDKSRWQQGNVFSCSVMHEALHNHYTQKSLSLSPGK
notes: Commercial ENBREL (Wyeth Europa Ltd); also called etanercept (non-PEGylated); non-PEGylated etanercept

fold IC50 against non-PEGylated etanercept [2]: < 2 fold
B2: PEG20-etanercept (5 eq) (Fc fusion)
chain: B1 chain
modifications: 20 KDa PEG (PEG20) conjugated via NHS-ester PEG reagent at 5 times molar excess; sites not stated
notes: also called PEGylated etanercept

fold IC50 against non-PEGylated etanercept [2]: < 2 fold
B3: PEG20-etanercept (10 eq) (Fc fusion)
chain: B1 chain
modifications: 20 KDa PEG (PEG20) conjugated via NHS-ester PEG reagent at 10 times molar excess; sites not stated
notes: as for B2
